# Data as given in article PMC6405316 (Nature, 2019).
# B1: His6-GST-tagged GABAB2 C-terminal fragment (residues 876–913) (peptide)
# chain: KDPIEDINSPEHIQRRLSLQLPILHHAYLPSIGGVDAS
# B2: GABAB2 876–913, His6-SUMO tag cleaved by 3C protease (peptide)
# peptide: B1 chain
# B3: His6-SUMO-tagged GABAB2 876–913 (peptide)
# chain: B1 chain
# Experiments:
# [1] = molecular target: KCTD12 H1 domain (residues 200–325) (human) (UniProt Q96CX2); test: SEC
# [2] = molecular target: His6-SMT3-tagged KCTD16 BTB domain (residues 23–124) (human, UniProt Q68DU8 23-124); test: pull-down
# Sequence of His6-SMT3-tagged KCTD16 BTB domain (residues 23–124) (Q68DU8 23-124): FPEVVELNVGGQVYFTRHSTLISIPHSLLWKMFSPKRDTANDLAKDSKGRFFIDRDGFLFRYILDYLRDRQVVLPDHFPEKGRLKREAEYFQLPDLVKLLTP
# [3] = molecular target: KCTD16 BTB domain wild-type (residues 23–124), SMT3 tag cleaved with ULP1 (human, UniProt Q68DU8 23-124); test: pull-down
# Sequence of KCTD16 BTB domain wild-type (residues 23–124), SMT3 tag cleaved with ULP1 (Q68DU8 23-124): as above
# [4] = molecular target: KCTD16 21–279, His6-GST tag cleaved by 3C protease (human, UniProt Q68DU8 21-279); test: SEC
# Sequence of KCTD16 21–279, His6-GST tag cleaved by 3C protease (Q68DU8 21-279): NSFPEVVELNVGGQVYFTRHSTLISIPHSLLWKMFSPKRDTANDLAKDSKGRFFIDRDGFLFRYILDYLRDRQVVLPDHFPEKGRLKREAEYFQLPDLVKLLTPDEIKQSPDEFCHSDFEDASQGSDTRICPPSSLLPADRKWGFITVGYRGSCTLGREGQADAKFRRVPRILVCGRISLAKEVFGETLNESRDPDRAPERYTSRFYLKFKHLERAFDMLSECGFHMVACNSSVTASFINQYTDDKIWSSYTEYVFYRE
# [5] = molecular target: KCTD12 32–325, His6-GST tag cleaved by 3C protease (human, UniProt Q96CX2 32-325); test: SEC
# Sequence of KCTD12 32–325, His6-GST tag cleaved by 3C protease (Q96CX2 32-325): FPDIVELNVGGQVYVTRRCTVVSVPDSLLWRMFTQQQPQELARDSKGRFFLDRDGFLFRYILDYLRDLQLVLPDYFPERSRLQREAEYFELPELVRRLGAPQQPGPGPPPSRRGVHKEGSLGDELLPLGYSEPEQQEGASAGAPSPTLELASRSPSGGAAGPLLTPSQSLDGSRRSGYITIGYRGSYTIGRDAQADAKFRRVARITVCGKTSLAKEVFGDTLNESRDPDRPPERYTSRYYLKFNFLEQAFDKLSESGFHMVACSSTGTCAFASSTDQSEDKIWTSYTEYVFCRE
# [6] = molecular target: His6-GST-tagged KCTD12 32–325 (human, UniProt Q96CX2 32-325); test: pull-down
# Sequence of His6-GST-tagged KCTD12 32–325 (Q96CX2 32-325): as above
# Sequence of KCTD12 H1 domain (residues 200–325) (human) (Q96CX2 200-325): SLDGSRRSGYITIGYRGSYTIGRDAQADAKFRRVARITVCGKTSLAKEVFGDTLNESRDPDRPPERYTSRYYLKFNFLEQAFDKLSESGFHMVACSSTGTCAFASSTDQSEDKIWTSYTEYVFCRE
molecule,measurement,setting,value
"Human Gβ1γ2 heterodimer (His6-Gβ1, Gγ2 C68S) (from UniProt P62873;P59768) (complex)",stoichiometry N (Gβγ per KCTD12H1 chain (5:5)),[1],1
B1,binding result,[2],binds
same,binding result,[3],binds
B2,binding result,[4],binds
same,binding result,[5],binds
B3,binding result,[6],binds
